Experimental data taken from US20150266922.

Biological target: SUMO1 (UniProt P63165)
Sequence (P63165 1-97): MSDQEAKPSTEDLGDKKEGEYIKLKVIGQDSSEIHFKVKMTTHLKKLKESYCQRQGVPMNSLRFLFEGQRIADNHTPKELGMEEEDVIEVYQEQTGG

## recombinant DPP9V285A (insect cells)
  hydrolysis of GP-AMC by DPP9 V285A: the SUBA mutant DPP9V285A was not activated by SUMO1
